Experimental data as given in patent US20190055314A1 (ADAGENE, published 2019).

T1: full-length mouse CD137 on the cell surface (mouse, UniProt P20334 24-178)
T1 sequence: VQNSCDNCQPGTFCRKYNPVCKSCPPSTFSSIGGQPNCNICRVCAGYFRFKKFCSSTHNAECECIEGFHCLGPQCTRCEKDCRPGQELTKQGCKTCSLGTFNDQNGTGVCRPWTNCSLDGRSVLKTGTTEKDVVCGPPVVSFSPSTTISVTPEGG

T2: Hu_CRD4 (human, UniProt Q07011 119-159, limits assumed)
T2 construct: also called human CD137 CRD4
T2 chain: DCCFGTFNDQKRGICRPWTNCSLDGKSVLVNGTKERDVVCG

T3: Hu_CRD3 (human, limits assumed)
T3 construct: also called human CD137 CRD3
T3 chain: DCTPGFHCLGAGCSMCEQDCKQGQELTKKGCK

T4: monkey CD137 fused with human FC fragment (cynomolgus monkey, UniProt Q07011 24-179 (human entry), limits assumed)
T4 construct: also called Cyno CD137-Fc; not shown: human Fc fragment
T4 chain: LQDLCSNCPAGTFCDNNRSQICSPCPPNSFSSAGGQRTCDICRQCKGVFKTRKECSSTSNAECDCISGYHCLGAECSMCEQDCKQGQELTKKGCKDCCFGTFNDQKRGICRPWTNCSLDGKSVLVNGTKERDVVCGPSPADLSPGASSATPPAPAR

T5: OX40 overexpressed on HEK293F cells (UniProt P43489 29-277, limits assumed)
T5 construct: whole, on cells
T5 sequence (looked up): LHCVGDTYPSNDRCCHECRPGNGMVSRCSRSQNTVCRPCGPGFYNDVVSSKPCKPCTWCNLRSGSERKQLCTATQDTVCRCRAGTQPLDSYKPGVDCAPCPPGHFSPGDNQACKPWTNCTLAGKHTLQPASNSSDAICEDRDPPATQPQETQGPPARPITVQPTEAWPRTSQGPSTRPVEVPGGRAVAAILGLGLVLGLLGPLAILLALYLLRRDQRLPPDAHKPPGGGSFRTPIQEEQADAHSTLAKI

T6: GITR overexpressed on HEK293F cells (UniProt Q9Y5U5 26-241, limits assumed)
T6 construct: whole, on cells
T6 sequence (looked up): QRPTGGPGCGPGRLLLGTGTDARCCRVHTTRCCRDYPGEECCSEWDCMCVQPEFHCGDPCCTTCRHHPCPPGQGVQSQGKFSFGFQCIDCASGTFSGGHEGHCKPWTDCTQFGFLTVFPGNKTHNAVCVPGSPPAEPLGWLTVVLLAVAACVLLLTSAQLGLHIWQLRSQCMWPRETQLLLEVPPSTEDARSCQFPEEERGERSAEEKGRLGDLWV


Columns and labels:
[1] = target: T7, full-length human CD137 on the cell surface (human, UniProt Q07011 18-255); assay: flow cytometry, HEK293F cells expressing CD137 or mutant [Cont.]
T7 construct: also called Human WT
T7 sequence (Q07011 18-255): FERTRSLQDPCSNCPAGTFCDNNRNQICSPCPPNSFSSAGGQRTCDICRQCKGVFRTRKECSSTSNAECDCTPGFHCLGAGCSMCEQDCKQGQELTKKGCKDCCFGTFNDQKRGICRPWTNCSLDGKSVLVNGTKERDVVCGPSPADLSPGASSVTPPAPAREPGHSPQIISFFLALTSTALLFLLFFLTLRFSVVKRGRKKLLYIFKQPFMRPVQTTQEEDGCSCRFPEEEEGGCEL

[2] = target: T1, full-length mouse CD137 on the cell …; assay: as above
[3] = target: T8, CD137-hisFc fusion protein (Sino Biological Cat 10041-H03H) (human, UniProt Q07011 24-186); assay: competition ELISA, human CD137-Fc-His coated, biotinylated CD137L as blocked ligand, neutravidin-HRP
T8 construct: Bought; also called recombinant human CD137 (fused with human Fc and His tag); not shown: His tag and human Fc

Hu_PW135AA = target: T9, Hu_PW135AA (human, UniProt Q07011 18-255); assay: flow cytometry, HEK293F cells expressing CD137 or mutant [Cont.]
T9 construct: On HEK293F
T9 sequence (Q07011 18-255 P135A/W136A): as the sequence (Q07011 18-255) above, with P118A, W119A counted along it

Hu_GT150AA = target: T10, Hu_GT150AA (human, UniProt Q07011 18-255); assay: as above
T10 construct: On HEK293F
T10 sequence (Q07011 18-255 G150A/T151A): as the sequence (Q07011 18-255) above, with G133A, T134A counted along it

Hu_FN125AA = target: T11, Hu_FN125AA (human, UniProt Q07011 18-255); assay: as above
T11 construct: On HEK293F
T11 sequence (Q07011 18-255 F125A/N126A): as the sequence (Q07011 18-255) above, with F108A, N109A counted along it

Hu_FH92AA = target: T12, Hu_FH92AA (human, UniProt Q07011 18-255); assay: as above
T12 construct: On HEK293F

Hu_CRD4 = target: T2, Hu_CRD4; assay: flow cytometry, yeast display [Cont.]
Hu_CRD1-CRD2 = target: T13, Hu_CRD1-CRD2 (human, UniProt Q07011 24-86, limits assumed); assay: flow cytometry, yeast display [Cont.]
T13 construct: also called two CRD units (CRD1-CRD2) of human CD137

Hu_CRD2-CRD3 = target: T14, Hu_CRD2-CRD3 (human, UniProt Q07011 46-118, limits assumed); assay: flow cytometry, yeast display [Cont.]
T14 construct: also called two CRD units (CRD2-CRD3) of human CD137

Hu_CRD3 = target: T3, Hu_CRD3; assay: flow cytometry, yeast display [Cont.]
[4] = target: T4, monkey CD137 fused with human FC …; assay: ELISA, coated CD137-Fc
[5] = target: T15, human CD137 fused with human FC fragment (human, UniProt Q07011 24-186, limits assumed); assay: ELISA, coated CD137-Fc
T15 construct: may be the same reagent as CD137-hisFc; also called human CD137 (FC fusion protein); not shown: human Fc fragment

[6] = target: T5, OX40 overexpressed on HEK293F cells; assay: flow cytometry, HEK293F cells expressing the receptor [Cont.]
[7] = target: T16, CD40 overexpressed on HEK293F cells (UniProt P25942 21-277, limits assumed); assay: as above
T16 construct: whole, on cells
T16 sequence (P25942 21-277 limits assumed): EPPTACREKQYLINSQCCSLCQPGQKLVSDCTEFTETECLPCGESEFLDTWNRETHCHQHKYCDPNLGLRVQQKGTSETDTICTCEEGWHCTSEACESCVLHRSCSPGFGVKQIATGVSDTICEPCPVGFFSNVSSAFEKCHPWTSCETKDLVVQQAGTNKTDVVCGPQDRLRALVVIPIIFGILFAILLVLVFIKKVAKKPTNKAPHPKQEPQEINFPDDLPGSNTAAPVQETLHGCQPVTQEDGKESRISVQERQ

[8] = target: T6, GITR overexpressed on HEK293F cells; assay: as above
[9] = target: T1, full-length mouse CD137 on the cell …; assay: flow cytometry, HEK293F

% in upper right quadrant [1] [%]	% in upper right quadrant [2] [%]	IC50 (read off the curve) [3] [nM]	Mean (Hu_PW135AA)	Mean (Hu_GT150AA)	binding result (Hu_FN125AA)	% in upper right quadrant (Hu_CRD4) [%]	Mean (Hu_CRD4)	% in upper right quadrant (Hu_CRD1-CRD2) [%]	Mean (Hu_CRD1-CRD2)	% in upper right quadrant (Hu_CRD2-CRD3) [%]	Mean (Hu_CRD2-CRD3)	% in upper right quadrant (Hu_CRD3) [%]	Mean (Hu_CRD3)	Kd [4] [nM]	Kd [5] [nM]	Binder	binding result (Hu_FH92AA)	other results
34.7	0.041	~100	31600	13300	binds	0.17	16100	0.31	12000	0.15	7460	0.25	6200	0.4	0.8	AG10059 (antibody, human IgG4 S228P, kappa, V domains shown) VH: EVQLVESGGGLVQPGGSLRLSCAASGYSITSGHYWAWIRQAPGKGLEWVSSISGYGSTTYYADSVKGRFTISRDNSKNTLYLQLNSLRAEDTAVYYCARGGSDAVLGDWFAYWGQGTLVTVSS VL: DIQLTQSPSSLSASVGDRVTITCRASQGIGSFLAWYQQKPGKAPKLLIYDASNLETGVPSRFSGSGSGTDFTLTISSLQPEDFATYYCQQGYYLWTFGQGTKVEIKR	no binding (tested: 100 nM (as in Example 5))	binding result [6]: no binding (tested: 100 nM (text paragraph 226)); binding result [7]: no binding (tested: 100 nM (text paragraph 226)); binding result [8]: no binding (tested: 100 nM (text paragraph 226))
27.3	31.1	~40	24300	12100	binds	0.15	16100	0.18	3680	0.11	14600	0.15	10400	0.3	0.2	AG10058 (antibody, human IgG4 S228P, kappa, V domains shown) VH: EVQLVESGGGLVQPGGSLRLSCAASGFSLSTSGVGVGWIRQAPGKGLEWLALIDWDDDKYYSPSLKSRLTISRDNSKNTLYLQLNSLRAEDTAVYYCARGGSDTVLGDWFAYWGQGTLVTVSS VL: DIQLTQSPSSLSASVGDRVTITCRASQSVSPYLAWYQQKPGKAPKLLIYDASSLESGVPSRFSGSGSGTDFTLTISSLQPEDFATYYCQQGYSLWTFGQGTKVEIKR	no binding (tested: 100 nM (as in Example 5))	Kd [9]: 10.1 nM
